Paper PMC3646893, “Solution Structure and Rpn1 Interaction of the UBL Domain of Human RNA Polymerase II C-Terminal Domain Phosphatase” (PLoS ONE, 2013)

Target: T1, Rpn1 regulatory subunit 1 (Rpn1 394-568), as used for NMR titration and ITC (human, UniProt Q13200 394-568)
T1 construct: source: E. coli BL21 (DE3), purified (size exclusion chromatography)
Test: ITC; VP-ITC, 25°C, NMR buffer; 20 µM Rpn1 regulatory subunit 1 in the cell, 25 injections of 6 µL of 400 µM UBL domain; one-site fit
Conditions: both partners purified

T1 sequence (Q13200 394-568): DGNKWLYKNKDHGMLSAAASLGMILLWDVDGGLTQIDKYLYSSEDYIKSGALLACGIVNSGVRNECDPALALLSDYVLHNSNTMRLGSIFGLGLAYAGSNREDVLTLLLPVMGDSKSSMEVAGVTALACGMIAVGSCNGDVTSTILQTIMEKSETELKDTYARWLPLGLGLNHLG

Kd: 10.3 µM | dH: -53.8 kcal/mol
B1: UBL domain of hUBLCP1 (UBLCP1 1-81), as used for NMR and ITC (domain or fragment, human, UniProt Q8WVY7 1-81, looked up)
chain: MALPIIVKWGGQEYSVTTLSEDDTVLDLKQFLKTLTGVLPERQKLLGLKVKGKPAENDVKLGALKLKPNTKIMMMGTREES
notes: UBL domain of human UBLCP1, residues 1-81; 15N-labelled (M9 medium) for the NMR titration; also called 15N-labeled UBL domain; source: E. coli BL21 (DE3), purified (size exclusion chromatography)
